Source: US7407671B2, “Temperature controlled solute delivery system” (Boston Scientific Scimed, Inc., priority 1998, dated 2008)

Assay: Solute release from bonded HPC gel membranes (modified HPLC system)
Assay type: physicochemical
Description: Solute release tests were conducted in the same manner as for PNIPA gels, as described in Example 1. The solute release experiments were designed to model the actual conditions of catheter use, which entail therapeutic solute loading at room temperature (25° C.), insertion of the catheter into the patient at 37° C., and temperature induced enhanced solute release when the catheter is placed at a target location in the body. While the experimental design was generally successful in modeling the actual use of catheter, heat lost to the experimental apparatus tubing reduced the 37° C. test temperature to 33° C. Because the transition temperature of HPC is fairly sharp (in this case, 43° C.), the reduction of test temperature from 37° C. to 33° C. had little impact on the test results.
Solute release experiments were conducted under four constant temperature conditions and three step change conditions. […] Thus, test temperatures below and above the transition temperature of HPC (43° C.) were used. […]

B1: ovalbumin: ovalbumin (M.w. 45,000 Da), model protein for bioactive proteins such as urokinase (protein, UniProt P01012 2-386, looked up)
Ovalbumin: GSIGAASMEFCFDVFKELKVHHANENIFYCPIAIMSALAMVYLGAKDSTRTQINKVVRFDKLPGFGDSIEAQCGTSVNVHSSLRDILNQITKPNDVYSFSLASRLYAEERYPILPEYLQCVKELYRGGLEPINFQTAADQARELINSWVESQTNGIIRNVLQPSSVDSQTAMVLVNAIVFKGLWEKAFKDEDTQAMPFRVTEQESKPVQMMYQIGLFRVASMASEKMKILELPFASGTMSMLVLLPDEVSGLEQLESIINFEKLTEWTSSNVMEERKIKVYLPRMKMEEKYNLTSVLMAMGITDVFSSSANLSGISSAESLKISQAVHAAHAEINEAGREVVGSAEAGVDAASVSEEFRADHPFLFCIKHIATNAVLFFGRCVSP
solute released before the temperature change (HPC gel membrane 0.66 mm, first two minutes at 24° C.): 11% | solute released within the first 7 minutes of the test (HPC gel membrane 0.66 mm, isothermal 24° C.): about 30% | solute released in the five minutes immediately after the temperature change (HPC gel membrane 0.66 mm, step 24° C. to 46° C.): 54% | solute released within the first 7 minutes of the test (HPC gel membrane 0.66 mm, step 24° C. to 46° C. after about two minutes): about 65% | ratio of the area of the convective pulse to the area of the isothermal release curve (triggered release from HPC gel): much greater for ovalbumin than for methyl orange or estradiol
